Experimental data taken from patent US20250340892.

Target: T1, Eglin C (secreted from E. coli W3110 via the MccV system, positive secretion supernatant)
T1 chain: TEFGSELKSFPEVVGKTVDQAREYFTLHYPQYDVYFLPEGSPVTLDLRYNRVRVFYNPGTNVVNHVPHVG

B1: neutrophil elastase (protein)
chain: IVGGRRARPHAWPFMVSLQLRGGHFCGATLIAPNFVMSAAHCVANVNVRAVRVVLGAHNLSRREPTRQVFAVQRIFENGYDPVNLLNDIVILQLNGSATINANVQVAQLPAQGRRLGNGVQCLAMGWGLLGRNRGIASVLQELNVTVVTSLCRRSNVCTLVRGRQAGVCFGDSGSPLVCNGLIHGIASFVRGGCASGLYPDAFAPVAQFVNWIDSIIQ
In the case of B1, the “neutrophil elastase (NE) activity assay (fluorogenic substrate, RFU over time)” value is reported as “NE activity with Eglin C positive secretion was comparable to positive control, which is NE with purified Eglin C (1.5 µM) while NE activity with Eglin C negative secretion showed a similar level with the sample having only NE”.
